To fix the notation:
B1: MiniB4 (structured_RNA)
RNA: GGGAGCUAAUGUAGGAUGCUGGGGUAGUCCAGCCCUAGAAUAAGCGCUAGUACUACAAGCU
B2: B4-Del3 (structured_RNA)
RNA: GGGAGAAUUCAACUGCCAUCUAGGCAAAGAGCUAAUGUAGGAUGCUGGGGUAGUCCAGCCCUAGAAUAAGCGCUAGUACUACAAGCU
B3: B4-Del5 (structured_RNA)
RNA: GGGAGCUAAUGUAGGAUGCUGGGGUAGUCCAGCCCUAGAAUAAGCGCUAGUACUACAAGCUUCUGGAGCUCGGU

This data set addresses T1, TFIIB (UniProt P29055 1-345).
T1 sequence: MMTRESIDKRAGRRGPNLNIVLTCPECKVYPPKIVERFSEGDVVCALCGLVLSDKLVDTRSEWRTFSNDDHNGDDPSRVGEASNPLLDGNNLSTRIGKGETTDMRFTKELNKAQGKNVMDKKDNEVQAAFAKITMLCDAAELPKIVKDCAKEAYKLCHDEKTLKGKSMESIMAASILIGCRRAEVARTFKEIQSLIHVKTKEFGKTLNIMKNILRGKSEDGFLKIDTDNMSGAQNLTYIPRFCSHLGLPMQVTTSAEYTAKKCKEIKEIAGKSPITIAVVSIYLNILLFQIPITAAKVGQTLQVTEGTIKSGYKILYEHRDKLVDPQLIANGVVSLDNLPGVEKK
Kind of data set: EMSA. (Mobility shift assays separate free from complexed probe on a gel.)
Turning to B1, the binding result is “binds”.
Next, B2: “binds”.
Consider B3, for which the binding result is on record as “binds”.

Source of the values: publication PMC2853134.
